[ ]: non-standard residue; d: D form. Ahx = NCCCCCC(=O)O
Experiments:
Bcl-2 [1] = molecular target: T1, Bcl-2 (Homo sapiens, UniProt P10415); assay: Immunoprecipitation of endogenous Bcl-2 by anti-Bcl-2/BH3 antibody in treated cells; format: cell-based; set-up: precipitated endogenous Bcl-2 in cells treated with L-NuBCP-9-r8 or D-NuBCP-9-r8; endogenous in cells
Target sequence in this assay (P10415 whole entry, species assumed): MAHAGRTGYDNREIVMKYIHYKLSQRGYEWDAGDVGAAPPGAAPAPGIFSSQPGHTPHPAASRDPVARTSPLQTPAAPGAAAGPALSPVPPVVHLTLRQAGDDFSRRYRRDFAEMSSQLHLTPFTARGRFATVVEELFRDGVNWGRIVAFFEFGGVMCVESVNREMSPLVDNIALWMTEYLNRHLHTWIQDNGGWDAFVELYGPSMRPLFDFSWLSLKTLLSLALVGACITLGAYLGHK

GST-Bcl-2 = molecular target: T2, GST-Bcl-2 (Homo sapiens, UniProt P10415); assay: Immunoprecipitation of purified GST-Bcl-2 by anti-Bcl-2/BH3 antibody; format: biochemical
T2 construct: made in house
T2 sequence (P10415 whole entry): as the sequence (P10415 whole entry, species assumed) above

[2] = tested on: MDA-MB435 breast carcinoma cells; assay: MDA-MB435 tumors in SCID mice; format: in vivo
Procedure: Animal studies. Female SCID mice (6-week-old) (Tacomic) were injected with 10^6 MDA-MB435 breast carcinoma cells. Tumors were palpable on day 7. On days 10 and 13, test peptides (620 μg in 50 μL PBS) were injected into the tumor areas of 5 mice. Tumor volumes (1×w^2) were determined using calipers. No weight changes were observed. Established tumors in control mice were injected with test peptides and tumor tissues were excised and sectioned after 3 days. Tissues were fixed (10% buffered formalin), then rapidly paraffin-embedded. Apoptosis was detected by the TUNEL assay.

Bcl-2 [3] = molecular target: T1, Bcl-2; assay: Bcl-2 conformational change, anti-Bcl-2/BH3 antibody staining of HEK293T cells transfected with Bcl-2; format: cell-based; set-up: expressed in transfected cells; host or cells: HEK293T
Procedure: Such a Bcl-2 conformation is recognized by an anti-Bcl-2 antibody raised against the Bcl-2 BH3 domain. To determine whether NuBCP-9 induced a Bcl-2 conformational change, flow cytometric assays were conducted which HEK293T cells transfected with Bcl-2 were exposed to NuBCPs and subsequently stained with the anti-Bcl-2/BH3 antibody.
Target sequence in this assay (P10415 whole entry): as the sequence (P10415 whole entry, species assumed) above

H460 lung cancer cells [4] = assay: Apoptosis in H460 lung cancer cells; format: cell-based
Procedure: Bcl-2 siRNAs and antisense oligonucleotides-The target siRNA SMARTpools for Bcl-2 and Bak and the siRNA oligonucleotide for Nur77 (5'-[…] NO: 67) were purchased from Dharmacon Research Inc. Target or control siRNA were transfected at a final concentration of 200 nM into cells at 40% confluency using Oligofectamine reagent (Invitrogen) according to the manufacturer's recommendations. After 48 h, cells were analyzed. Bcl-2 antisense oligonucleotide targeting Bcl-2 and negative control oligonucleotides were obtained from Calbiochem. […] The percentages of apoptotic cells were determined by counting 300 GFP-positive cells, scoring cells having nuclear fragmentation and/or chromatin condensation. Cell culture. […] HEK293T embryonic kidney cells were grown in DME medium supplemented with 10% FBS. Jurkat and Jurkat cells stably expressing Bcl-2 were kindly provided by Dr. John Reed, and they were maintained in RPMI1640 medium.

Bcl-2 [5] = molecular target: T1, Bcl-2; assay: Competition assay of Nur77/ΔDBD binding with Bcl-2; set-up: expressed in transfected cells; host or cells: HEK293T
Procedure: Nur77/Bcl-2 interaction assays—Reporter gene assays using NurRE-tk-CAT in CV-1 cells, and GST pull-down assay were described previously (Li, et al. 2000 Science 289:1159-1164). For the mammalian two-hybrid assays, CV-1 cells were co-transfected with pcDNA-Gal4TAD-Nur77 or pcDNA-Gal4TAD-Nur77/ΔDBD and pcDNA-Gal4 DBD-Bcl-2/ΔTM along with a luciferase reporter gene driven by four copies of the Gal-4-binding site. The cells were harvested and reporter gene activity was measured. For Co-IP assays, HEK293T cells were transiently transfected with various expression plasmids using a modified calcium phosphate precipitation method (Wu et al, 1997) in the presence of caspase inhibitors (zVAD-fmk) to prevent degradation of Nur77 protein due to apoptosis. Cells were suspended in lysis buffer (50 mM Tris-HCl, PH7.4; 150 mM NaCl; 20 mM EDTA; 1% NP-40; 1 mM PMSF; 50 μg/ml Leupeptin; […] Aprotinin; 0.1 mM Na3VO4; and 1 mM DTT). Cells extracts were cleared by incubation with the Protein A/G plus Agarose beads (Santa Cruz) and then incubated with appropriate antibody and 30 μl of Protein A or G plus Agarose beads overnight at 4° C. […] Immunoreactive products were detected by chemiluminescence with an enhanced chemiluminescence system (ECL) (Amersham).
Target sequence in this assay (P10415 whole entry): as the sequence (P10415 whole entry, species assumed) above

H460 lung cancer cells [6] = assay: Apoptosis in H460 lung cancer cells; format: cell-based; conditions: H460 cells; peptides conjugated with CPP, 10 μM

acetyl------------FSRSLHSLLGXrrrrrrrr-amide (Ac-FSRSLHSLLG[Ahx][dR][dR][dR][dR][dR][dR][dR][dR]-NH2; SMILES CC(=O)N[C@@H](Cc1ccccc1)C(=O)N[C@@H](CO)C(=O)N[C@@H](CCCNC(=N)N)C(=O)N[C@@H](CO)C(=O)N[C@@H](CC(C)C)C(=O)N[C@@H](Cc1c[nH]cn1)C(=O)N[C@@H](CO)C(=O)N[C@@H](CC(C)C)C(=O)N[C@@H](CC(C)C)C(=O)NCC(=O)NCCCCCC(=O)N[C@H](CCCNC(=N)N)C(=O)N[C@H](CCCNC(=N)N)C(=O)N[C@H](CCCNC(=N)N)C(=O)N[C@H](CCCNC(=N)N)C(=O)N[C@H](CCCNC(=N)N)C(=O)N[C@H](CCCNC(=N)N)C(=O)N[C@H](CCCNC(=N)N)C(=O)N[C@H](CCCNC(=N)N)C(N)=O) [NuBCP-9-r8]
precipitation of endogenous Bcl-2 by anti-Bcl-2/BH3 antibody (Bcl-2 [1]): precipitated
precipitation of GST-Bcl-2 protein by anti-Bcl-2/BH3 antibody (GST-Bcl-2): strong precipitation
growth of tumors ([2]; SCID mice, 620 μg injected into tumor areas on days 10 and 13, vs control NuBCP-9/AA-r8): dramatically suppressed
apoptosis of tumor cells in vivo ([2]; TUNEL assay): potently induced
Bcl-2 immunofluorescence by anti-Bcl-2/BH3 antibody (Bcl-2 [3]; flow cytometry): strong Bcl-2 immunofluorescence
Bcl-2 staining by anti-Bcl-2/BH3 antibody (Bcl-2 [3]; fluorescence microscopy): strongly stained
Bcl-2 immunofluorescence in the presence of caspase inhibitor zVAD (Bcl-2 [3]; zVAD present): observed
apoptotic function after Bcl-2 antisense oligonucleotides (H460 lung cancer cells [4]; Bcl-2 antisense oligonucleotides): attenuated
apoptotic effect after transfection of Bcl-2 siRNA (H460 lung cancer cells [4]; H460 cells, Bcl-2 siRNA vs control GFP siRNA): inhibited
binding of Nur77/ΔDBD with Bcl-2 in presence of peptide (Bcl-2 [5]): abrogated
apoptotic effect (H460 lung cancer cells [6]): potently induce apoptosis

Reference: patent US7745574B2, “Compounds that regulate apoptosis” (The Burnham Institute, priority 2005, dated 2010)
